Patent US20040071661A1

Target: LCMV glycoprotein GP33-41 epitope presented by the histocompatibility molecules H-2D^b (LCMV virus; mouse (C57BL/6)) (UniProt P09991)
Experiment: cell-based or functional assay

T receptor (TCR Vα2 Vβ8) specific for the GP33-41 epitope, on CD8 T lymphocytes of TCR-transgenic C57BL/6 mice
% CD44^hi effector - memory, of CD8+ TCR Vα2 T cells, 7 days after injection of H293-341-LCMV.GP particle supernatant (control H293-341: 37.6): 63.9% | CD44^lo (naïve), percent of CD8+ TCR Vα2 T cells, 7 days after injection of H293-341-LCMV.GP particle supernatant (control H293-341: 57.6): 24.5%
